Measured values as given in publication PMC10036535, “A naturally occurring mini-alanyl-tRNA synthetase”.

Legend:
[1] = system: TuAlaRS (Tupanvirus (of Acanthamoeba castellanii)); test: EMSA; conditions: none (in vitro transcript)
EcAlaRS [2] = biological target: T1, EcAlaRS (Escherichia coli, UniProt P00957 1-876); test: EMSA; 5 mM Mg2+; hardly affected vs WT; EMSA: 20 mM HEPES pH 7.5, 20 mM KCl, 5 mM MgCl2, 2 mM DTT, 0.1 µM RNA, 10 min on ice, protein 0.0625-32 µM; 5% native PAGE, 0.5x TBE, 4 °C; conditions: protein: recombinant; label: 5'-32P; tRNA cloverleaf
T1 sequence: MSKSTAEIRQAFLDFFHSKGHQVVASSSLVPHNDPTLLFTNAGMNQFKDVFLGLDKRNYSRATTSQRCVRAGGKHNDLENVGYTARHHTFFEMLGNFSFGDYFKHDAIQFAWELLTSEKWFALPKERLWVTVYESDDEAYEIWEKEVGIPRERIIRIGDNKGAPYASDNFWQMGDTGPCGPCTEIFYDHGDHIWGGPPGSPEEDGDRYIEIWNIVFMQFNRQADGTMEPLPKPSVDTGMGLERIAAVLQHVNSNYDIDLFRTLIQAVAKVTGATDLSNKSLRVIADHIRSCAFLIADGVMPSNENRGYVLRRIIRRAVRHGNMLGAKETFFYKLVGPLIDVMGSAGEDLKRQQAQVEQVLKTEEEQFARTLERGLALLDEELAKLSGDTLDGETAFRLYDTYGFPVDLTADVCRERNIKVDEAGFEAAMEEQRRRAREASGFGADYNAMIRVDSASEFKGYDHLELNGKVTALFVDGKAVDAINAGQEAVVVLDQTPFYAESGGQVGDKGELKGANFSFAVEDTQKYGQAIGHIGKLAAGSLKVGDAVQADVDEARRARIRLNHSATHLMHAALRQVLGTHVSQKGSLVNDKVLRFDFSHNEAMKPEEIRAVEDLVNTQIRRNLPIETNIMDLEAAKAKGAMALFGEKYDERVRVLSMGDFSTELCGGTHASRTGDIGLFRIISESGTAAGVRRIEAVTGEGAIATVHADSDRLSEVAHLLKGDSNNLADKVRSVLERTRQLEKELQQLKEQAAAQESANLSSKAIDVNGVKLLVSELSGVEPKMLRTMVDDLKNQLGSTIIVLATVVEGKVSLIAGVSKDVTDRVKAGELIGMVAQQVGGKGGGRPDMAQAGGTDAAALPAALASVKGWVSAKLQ

EcAlaRS [3] = biological target: T1, EcAlaRS; test: EMSA; 5 mM Mg2+; EMSA: 20 mM HEPES pH 7.5, 20 mM KCl, 5 mM MgCl2, 2 mM DTT, 0.1 µM RNA, 10 min on ice, protein 0.0625-32 µM; 5% native PAGE, 0.5x TBE, 4 °C; conditions: protein: recombinant; label: 5'-32P; tRNA cloverleaf

GGGGCUAUAGCUUCUAGCUCCACCA [Ec-microAla]
Kd [1]: 300 nM

GGAGCUAUAGCUUCUAGCUCCACCA [Ec-microAla A3:U70]
Kd fold increase vs WT (fold increase in Kd vs WT) [1]: 3

GGGGCUAUAGCUCAGCUGGGAGAGCGCCUGCUUUGCAAGCAGGAGGUCUGCGGUUCGAUCCCGCAUAGCUCCACCA [EctRNAAla]
Kd [1]: 300 nM

GGGAUUUUAGCUUCUAAUUCUACCA [Ce-microAla]
Kd [1]: 400 nM

GGGGCUAUAGCUUCUAGCCCCACCA [Ec-microAla G3:C70]
Kd fold increase vs WT (fold increase in Kd vs WT) [1]: 3

B1: EctRNAAla delCCA (structured_RNA)
RNA: GGGGCUAUAGCUCAGCUGGGAGAGCGCCUGCUUUGCAAGCAGGAGGUCUGCGGUUCGAUCCCGCAUAGCUCCA
modifications: none (in vitro transcript)
binding result (EcAlaRS [2]): binds

B2: EctRNAAla CCA to UUG (structured_RNA)
RNA: GGGGCUAUAGCUCAGCUGGGAGAGCGCCUGCUUUGCAAGCAGGAGGUCUGCGGUUCGAUCCCGCAUAGCUCCAUUG
modifications: none (in vitro transcript)
binding result (EcAlaRS [2]): binds

B3: EctRNAAla (structured_RNA)
RNA: GGGGCUAUAGCUCAGCUGGGAGAGCGCCUGCUUUGCAAGCAGGAGGUCUGCGGUUCGAUCCCGCAUAGCUCCACCA
modifications: none (in vitro transcript)
Kd (EcAlaRS [3]): 1000 nM
